Measured values reported in paper PMC10397247.

What was measured:
Experiment in all cases: two-hybrid library CCmax;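 further: natural log of median RNA to DNA barcode read ratio; higher means stronger binding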
4H2621-AA = molecular target: T1, 4H2621-AA; details: mean of both orientations
T1 chain: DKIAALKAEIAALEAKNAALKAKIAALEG

4H3777-AA = molecular target: T2, 4H3777-AA; details: mean of both orientations
T2 chain: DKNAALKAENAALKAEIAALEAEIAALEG

4H3094-AA = molecular target: T3, 4H3094-AA; details: mean of both orientations
T3 chain: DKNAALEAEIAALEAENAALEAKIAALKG

4H3449-AA = molecular target: T4, 4H3449-AA; details: mean of both orientations
T4 chain: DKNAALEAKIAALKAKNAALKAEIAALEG

4H341-AA = molecular target: T5, 4H341-AA; details: mean of both orientations
T5 chain: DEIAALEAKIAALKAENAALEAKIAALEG

4H2961-AA = molecular target: T6, 4H2961-AA; details: mean of both orientations
T6 chain: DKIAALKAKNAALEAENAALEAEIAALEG

4H1593-AA = molecular target: T7, 4H1593-AA; details: mean of both orientations
T7 chain: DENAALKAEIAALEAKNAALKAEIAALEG

4H3915-AA = molecular target: T8, 4H3915-AA; details: mean of both orientations
T8 chain: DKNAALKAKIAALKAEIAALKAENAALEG

4H3974-AA = molecular target: T9, 4H3974-AA; details: mean of both orientations
T9 chain: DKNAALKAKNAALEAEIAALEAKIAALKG

4H324-AA = molecular target: T10, 4H324-AA; details: mean of both orientations
T10 chain: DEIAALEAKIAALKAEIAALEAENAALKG

4H432-AA = molecular target: T11, 4H432-AA; details: mean of both orientations
T11 chain: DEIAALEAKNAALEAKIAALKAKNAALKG

4H446-AA = molecular target: T12, 4H446-AA; details: mean of both orientations
T12 chain: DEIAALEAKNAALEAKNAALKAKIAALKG

4H2774-AA = molecular target: T13, 4H2774-AA; details: mean of both orientations
T13 chain: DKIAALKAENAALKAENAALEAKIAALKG

4H2903-AA = molecular target: T14, 4H2903-AA; details: mean of both orientations
T14 chain: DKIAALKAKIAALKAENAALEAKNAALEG

4H133-AA = molecular target: T15, 4H133-AA
T15 chain: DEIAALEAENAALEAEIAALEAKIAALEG

4H249-AA = molecular target: T16, 4H249-AA; details: mean of both orientations
T16 chain: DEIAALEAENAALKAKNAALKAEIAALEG

4H3619-AA = molecular target: T17, 4H3619-AA; details: mean of both orientations
T17 chain: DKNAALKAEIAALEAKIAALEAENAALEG

4H1878-AA = molecular target: T18, 4H1878-AA; details: mean of both orientations
T18 chain: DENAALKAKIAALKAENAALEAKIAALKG

4H2760-AA = molecular target: T19, 4H2760-AA; details: mean of both orientations
T19 chain: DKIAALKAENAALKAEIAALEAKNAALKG

4H1349-AA = molecular target: T20, 4H1349-AA; details: mean of both orientations
T20 chain: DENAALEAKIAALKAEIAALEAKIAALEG

4H1449-AA = molecular target: T21, 4H1449-AA; details: mean of both orientations
T21 chain: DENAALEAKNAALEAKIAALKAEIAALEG

4H2947-AA = molecular target: T22, 4H2947-AA
T22 chain: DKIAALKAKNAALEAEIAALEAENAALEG

4H3629-AA = molecular target: T23, 4H3629-AA; details: mean of both orientations
T23 chain: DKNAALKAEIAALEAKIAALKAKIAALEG

4H235-AA = molecular target: T24, 4H235-AA; details: mean of both orientations
T24 chain: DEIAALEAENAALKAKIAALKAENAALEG

4H3049-AA = molecular target: T25, 4H3049-AA; details: mean of both orientations
T25 chain: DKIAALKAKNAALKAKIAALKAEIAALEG

4H2580-AA = molecular target: T26, 4H2580-AA; details: mean of both orientations
T26 chain: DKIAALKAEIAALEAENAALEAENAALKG

4H1384-AA = molecular target: T27, 4H1384-AA; details: mean of both orientations
T27 chain: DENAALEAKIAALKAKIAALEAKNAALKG

4H63-AA = molecular target: T28, 4H63-AA; details: mean of both orientations
T28 chain: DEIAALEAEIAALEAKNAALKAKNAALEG

4H380-AA = molecular target: T29, 4H380-AA; details: mean of both orientations
T29 chain: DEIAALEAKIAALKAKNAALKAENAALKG

4H2604-AA = molecular target: T30, 4H2604-AA; details: mean of both orientations
T30 chain: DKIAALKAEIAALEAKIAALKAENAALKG

4H1388-AA = molecular target: T31, 4H1388-AA; details: mean of both orientations
T31 chain: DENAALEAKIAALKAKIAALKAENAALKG

4H1629-AA = molecular target: T32, 4H1629-AA; details: mean of both orientations
T32 chain: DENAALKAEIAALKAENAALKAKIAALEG

4H1351-AA = molecular target: T33, 4H1351-AA; details: mean of both orientations
T33 chain: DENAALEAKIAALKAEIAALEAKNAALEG

4H1310-AA = molecular target: T34, 4H1310-AA; details: mean of both orientations
T34 chain: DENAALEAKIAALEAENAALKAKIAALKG

4H1594-AA = molecular target: T35, 4H1594-AA; details: mean of both orientations
T35 chain: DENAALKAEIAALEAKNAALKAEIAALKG

4H1874-AA = molecular target: T36, 4H1874-AA; details: mean of both orientations
T36 chain: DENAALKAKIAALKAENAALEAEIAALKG

4H3056-AA = molecular target: T37, 4H3056-AA; details: mean of both orientations
T37 chain: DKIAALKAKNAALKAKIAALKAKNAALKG

4H3413-AA = molecular target: T38, 4H3413-AA; details: mean of both orientations
T38 chain: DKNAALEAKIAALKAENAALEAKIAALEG

4H3697-AA = molecular target: T39, 4H3697-AA; details: mean of both orientations
T39 chain: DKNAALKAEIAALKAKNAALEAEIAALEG

4H3588-AA = molecular target: T40, 4H3588-AA; details: mean of both orientations
T40 chain: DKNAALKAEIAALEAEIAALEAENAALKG

4H3718-AA = molecular target: T41, 4H3718-AA; details: mean of both orientations
T41 chain: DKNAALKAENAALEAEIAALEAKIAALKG

4H1401-AA = molecular target: T42, 4H1401-AA; details: mean of both orientations
T42 chain: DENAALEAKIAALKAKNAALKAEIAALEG

4H982-AA = molecular target: T43, 4H982-AA; details: mean of both orientations
T43 chain: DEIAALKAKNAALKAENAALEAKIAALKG

4H32-AA = molecular target: T44, 4H32-AA; details: mean of both orientations
T44 chain: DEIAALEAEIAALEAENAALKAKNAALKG

4H3865-AA = molecular target: T45, 4H3865-AA; details: mean of both orientations
T45 chain: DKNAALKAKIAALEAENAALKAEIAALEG

4H1845-AA = molecular target: T46, 4H1845-AA; details: mean of both orientations
T46 chain: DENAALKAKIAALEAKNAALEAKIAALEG

4H2611-AA = molecular target: T47, 4H2611-AA; details: mean of both orientations
T47 chain: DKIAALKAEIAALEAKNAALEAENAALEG

4H1513-AA = molecular target: T48, 4H1513-AA; details: mean of both orientations
T48 chain: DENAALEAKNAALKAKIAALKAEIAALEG

4H2620-AA = molecular target: T49, 4H2620-AA; details: mean of both orientations
T49 chain: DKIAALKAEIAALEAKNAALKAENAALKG

4H123-AA = molecular target: T50, 4H123-AA
T50 chain: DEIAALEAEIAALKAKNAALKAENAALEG

4H697-AA = molecular target: T51, 4H697-AA; details: mean of both orientations
T51 chain: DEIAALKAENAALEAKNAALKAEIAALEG

4H2648-AA = molecular target: T52, 4H2648-AA; details: mean of both orientations
T52 chain: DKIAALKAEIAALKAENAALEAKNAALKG

4H384-AA = molecular target: T53, 4H384-AA; details: mean of both orientations
T53 chain: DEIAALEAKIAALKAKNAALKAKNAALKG

4H3378-AA = molecular target: T54, 4H3378-AA
T54 chain: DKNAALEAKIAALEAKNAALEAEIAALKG

4H2907-AA = molecular target: T55, 4H2907-AA; details: mean of both orientations
T55 chain: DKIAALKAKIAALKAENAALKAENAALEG

4H3133-AA = molecular target: T56, 4H3133-AA; details: mean of both orientations
T56 chain: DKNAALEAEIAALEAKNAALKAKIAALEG

4H340-AA = molecular target: T57, 4H340-AA; details: mean of both orientations
T57 chain: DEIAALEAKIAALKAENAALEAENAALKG

4H3631-AA = molecular target: T58, 4H3631-AA; details: mean of both orientations
T58 chain: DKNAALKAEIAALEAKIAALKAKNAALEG

4H2198-AA = molecular target: T59, 4H2198-AA; details: mean of both orientations
T59 chain: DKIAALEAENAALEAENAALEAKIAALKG

4H3162-AA = molecular target: T60, 4H3162-AA; details: mean of both orientations
T60 chain: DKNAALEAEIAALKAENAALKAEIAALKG

4H3606-AA = molecular target: T61, 4H3606-AA; details: mean of both orientations
T61 chain: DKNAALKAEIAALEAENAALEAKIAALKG

4H2553-AA = molecular target: T62, 4H2553-AA; details: mean of both orientations
T62 chain: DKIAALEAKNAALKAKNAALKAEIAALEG

B1: 4H133-AA (peptide)
chain: DEIAALEAENAALEAEIAALEAKIAALEG
interaction score (4H2621-AA): 0.704 | interaction score (4H3777-AA): 0.631 | interaction score (4H3094-AA): -1.05 | interaction score (4H3449-AA): 0.625 | interaction score (4H341-AA): -1.11 | interaction score (4H2961-AA): -1.33 | interaction score (4H1593-AA): -0.948 | interaction score (4H3915-AA): 1.08 | interaction score (4H3974-AA): 0.688 | interaction score (4H324-AA): -0.986 | interaction score (4H432-AA): -0.168 | interaction score (4H446-AA): 0.854 | interaction score (4H2774-AA): 0.342 | interaction score (4H2903-AA): -1.62 | interaction score (4H133-AA): -0.665 | interaction score (4H249-AA): 0.33 | interaction score (4H3619-AA): -0.325 | interaction score (4H1878-AA): 1.23 | interaction score (4H2760-AA): 1.33 | interaction score (4H1349-AA): 0.224 | interaction score (4H1449-AA): 0.176 | interaction score (4H2947-AA): -0.964 | interaction score (4H3629-AA): 1.24 | interaction score (4H235-AA): 0.197 | interaction score (4H3049-AA): 2.17 | interaction score (4H2580-AA): -1.27 | interaction score (4H1384-AA): 0.598 | interaction score (4H63-AA): -1.37 | interaction score (4H380-AA): -1.13 | interaction score (4H2604-AA): -0.647

B2: 4H123-AA (peptide)
chain: DEIAALEAEIAALKAKNAALKAENAALEG
interaction score (4H1388-AA): -0.318 | interaction score (4H1629-AA): -1.79 | interaction score (4H1351-AA): -0.328 | interaction score (4H1310-AA): -2 | interaction score (4H1594-AA): -1.9 | interaction score (4H1874-AA): -0.134 | interaction score (4H3056-AA): -2.08 | interaction score (4H3413-AA): -1.35 | interaction score (4H3697-AA): -1.64 | interaction score (4H3588-AA): -0.454 | interaction score (4H3718-AA): -0.602 | interaction score (4H1401-AA): -1.83 | interaction score (4H982-AA): -1.15 | interaction score (4H32-AA): 1.79 | interaction score (4H3865-AA): -1.93 | interaction score (4H1845-AA): -1.73 | interaction score (4H2611-AA): 0.00349 | interaction score (4H1513-AA): -1.7 | interaction score (4H2620-AA): 0.675 | interaction score (4H123-AA): -1.3 | interaction score (4H697-AA): -0.781 | interaction score (4H2648-AA): 2.1 | interaction score (4H384-AA): -0.635 | interaction score (4H3378-AA): -1.89 | interaction score (4H2907-AA): 0.0402 | interaction score (4H3133-AA): -2.05 | interaction score (4H340-AA): 1.64 | interaction score (4H3631-AA): -0.979 | interaction score (4H2198-AA): -0.461 | interaction score (4H3162-AA): -1.32 | interaction score (4H3606-AA): 1.04 | interaction score (4H2553-AA): -1.8
